Results from the DeepSol protein solubility set.

Experiment: soluble on expression in E. coli; label from the status in PepcDB or PDB records

Sequence	soluble on expression in E. coli
MYLRKILELYRDSRFKYVVVDTPPTGLTLRILSLPRLYTFWLESLIGIRERIVSLRYVIARSIGREPEMDDPVLDKLREMQDRYAKLSNDLVERERTSFAIVATPEPLPVYEARKTVEFLESMGAKPSIIVVNRILPAEIASRLGVLEVQSKALNELRTRVCRKPCVLVEIPMVETVPSSLEAVLNLVERSR	not soluble
MSHDSSGEYMVSQVLKCVKFKDLVRKALNAEAKFSPASVEYDKRRHSKYAYLVHWRGYDWKERTWEPEENLENCEELQKFKERNNMSLDHLTFEHHYEHSTWRRISLASEKCVTNRYLKTDDEIEEKRARKKAKLEEQNRKEQAKNPHASAETEPAVKKKKIEGVGSRIPKISDREGAGTSGQSSSNVSTPGITPLDNKTPRMQKKSNEIGQASTPECAIATLSIGTPQPSIIDSTYDQSDIANGSTSPQPQPVFKRKMNGQDVSDYSVHQGGTFSDGSAIEGSTSRESEDMDCTQETKKALQKAIESAREECEEIEKTIKKYPLQVTSSRVVTGFSPALTLRKFRRCQSLEMLSDHFNNNAEMEIFGKNFENSVRLDADAKPVVIKIYPQEQELFLTKQRKMPSLEMEQLVYENLVKENANNIKIAMHNIRPDKNFAQLLECLSHAYSKDDNIRFETIFNEGFPPSDEYDCRRFQAIVFLIAYCKHRLWKADPKGMAIVEASDAVKEGEIREQQIICSDRHRKCAWLQVFLKLMPDRFKFLETSGQCYHGWEGDDGPFRDDVFFHCMKYGAECQKRLFLDFNKPIGIQEETVGDYSVDAMHLLAVQYGNIQRIPSYLSIGGLDINALATHLPTKRVMRLQHYLKVWIEAHKSETTATEDRKKYYRYLNDVIRLTSESLEIFLENEVTKMIFSRMGGRWKIRMDLTYPHILRCSPLSNKSNGGDGTHQVLSCLFYPEAIGYRDGLENSKGADTEKIDELKTSQKRYKKMIEEGKGRLVLALYRIDIEFRCNLAEKEQFSLPKFTLIESDDGFKIEKLTLLRQTEGLTCYEADIGMFEMTPFSSPGCRYFGISDKAHEKDLVVPGNAHIEMRAEVDQPISFVTQLFFIKKNV	not soluble
MSLRNIKWAILGPGTIARDFAKAISEVDNNIYAVASRNIERAKKFANEYKAEKFYGDYDEMLRDENIDVVYISTPHCNHYEYIIKSLENNKHVFCEKAITVNGNQLKEIVDLANKKNLIVREAMTIYHMPLYKKLRELVDEGKIGKVKMIQVSFGSLKEYDVNNRFFSKDLAGGALLDIGTYALSFTRYFLSSQPEEILTTVKKFETGVDEQSGIILKNAEDEMAVISLTMRAKQPKRGVVAGEKAYITVENFPRADKATITYPDGSVEVVEAGETDRALVYEVQDMKACILNKDTDYTLQLSLGVMNIMDEVRSQWGIRYPFEEGHHHHHH	soluble
MGSDKIHHHHHHMSDAMHTLLTASPLLDLHHPEIEALVARRDWLTLSPYDRIGAVYDFVRNEIAFGYNEGDELPASRVLADGIGQCNTKSTLLMALLRAVGIPCRFHGFTIDKPLQKGAITGLAYWLAPQRIIHSWVEVSLEGRWIALEGFILDAPYLASLQRRFPQARRFCGYGAATPDLSAPGVDWRGQDAYIQKEGIADDFGVFDSPDAFYARHGSNLSGVKRWLYERVIRHRMNRNVARVRASKW	not soluble
MAHHHHHHMLKHKYNDSCVQELFYKNNIKLIAIDIDGTLADDTGKISDENLKAIEVCKKGGIEIILASGRLHSYAMKMFTNEQIEKYKIEKLDGVYSHGAYIHMKGYDYVYRKFSYKDLELILFSLGSYNILRNAVFLTVDSAYVINDDIKLIEEYIYTPESEGIISDIEYVKIIDTNYKPILINKIKDIFNIGDIVSIEIYDKLYPNQDIYSDLFKVLFYELQPHYKIYIPSSNNKIVLSPINTAKVHTTQLYAQFYRINLNNILSIGNDDNDIELLSSTGFSVAVKNSTPRALQVARCVSTKTNNENAVANIIYRVLSGRRS	not soluble
SGVTGAHGFPCCGKGSVEVAEMRDDLSQHQIQEEQELEADMLEQKPQLQVDLDLDPDPDPDPELEIGQVPALLESELYPALKLEAELDTEANSNEESDFEEPMQLVCKIESVHSNMGLPTPQTFRPWSLNSNCRSFTEENHMSACHHSISAQTSKHLFWANKLIQASEHSLQRAINMQLNNGSAGQPIRSPLREAIPTNALCSEEQLQIPDAHSAPPTTSSQAPSPLLSSDLPPPIDLTELITFASSLAMASSSRMDLPSLEHMMKAPPQEALEPSTEPLLTTVEEREPENHAETLPEKPREARAPLKSWSQEDKNFAQSYFDFSKPGIKRATIKGQIQLLQPPATSPLLQGSKEDSVPPGKEKENPLLVKIHFKLSAPTIPEK	soluble
MGSDKIHHHHHHMTRTIVIDPVTRIEGHAKISVFLDDQGNAEAARFHVVEYRGFEKFCEGRPFTEMAGITARICGICPVSHLLAAAKTGDKILAVQIPPAAENLRRLINLAQIIQSHALSFFHLSSPDFLLGWDSDPARRNLFGLIAADPETARAGIRLRQFGQQLIEWLGGRKIHAAWAVPGGVRSLLSQEGMVWIRDRLPAELATVRATLDRFKRLLDREFREETAVFGDFPSLFMGLVADNGDWEHYGGHLRFVDSQGRIIADRLREDDYASFLGEAVEPWSYLKFPYYKPWGYPEGMYRVGPLARLNVCDRIGTAGAEAERQELRDRAGGTVTSSFLYHYARLVEILASLEKIAEMVEDPNLQTGFLRSQAGVNCLEAIGVSEAPRGTLFHHYRVDSHGKIERVNLIIATGQNNLAMNRTVTQIAQHYIRHGEVQESFLNRVEAGIRCFDPCLSCSTHTAGQMPLKIEIFDSRGELYQCLCRDL	not soluble
MSLQHMYRCARVQGLDTSEGLLLFGKEHFYVIDGFTMTATREIRDIETLPPNMHEPIIPRGARQGPSQLKRTCSIFAYEDIKEVHKRRYLLQPIAVEVFSGDGRNYLLAFQKGIRNKVYQRFLAVVPSLTDSSESVSGQRPNTSVEQGSGLLSTLVGEKSVTQRWERGEISNFQYLMHLNTLAGRSYNDLMQYPVFPWILSDYDSEEVDLTNPKTFRNLAKPMGAQTDERLAQYKKRYKDWEDPNGETPAYHYGTHYSSAMIVASYLVRMEPFTQIFLRLQGGHFDLADRMFHSVREAWYSASKHNMADVKELIPEFFYLPEFLFNSNNFDLGCKQNGTKLGDVILPPWAKGDPREFIRVHREALECDYVSAHLHEWIDLIFGYKQQGPAAVEAVNVFHHLFYEGQVDIYNINDPLKETATIGFINNFGQIPKQLFKKPHPPKRVRSRLNGDNIGISVPPGATSDKIFFHHLDNLRPSLTPVKELKEPVGQIVCTDKGILAVEQNKVLIPPAWNKTFAWGYADLSCRLGTYESDKAVTVYECLSEWGQILCAVCPNPKLVITGGTSTVVCVWEMGTSKEKAKPLTLKQALLGHTDTVTCATASLAYHIIVSGSRDRTCIIWDLNKLSFLTQLRGHRAPVSALCINELTGDIVSCAGTYIHVWSINGNPIVSVNTFTGRSQQIVCCCMSEMNEWDTQNVIVTGHSDGVVRFWRMEFLQVPETPAPEPVEDLEMQEGCPEAQIGQQAQDDDSSDSETEEPSVSQDPKDTSSQPSSTSHRPRAASCRATATWCTDSGSDDSRRWSDQLSLDEKDGFIFVNYSEGQTRAHLQGPLAHPHPNPIEARSYSRLKPGYRWERQLVFRSKLTMHTAFDRKDNTHPAEVTALGVSKDHSRILVGDSRGRVFSWSVSDQEGHHHHHH	not soluble
THGAQHANPVVSGSVSPRPAPAKEQPSVAPSQSSVPPQPSIGEQRRQPETTAPTITEDKPEQTKVVPPTRPMATSTVGSEGRFTLRGIRNKQEQLQNNIQEVRTEMTESFDEEQLQLAWIEFAETKLSEEIHLKETMANCLPKLRPGTSAFEVEVLNSRQEEEINNVSARLLSFLADKLCNTTIRMNVRVSESTSLNRVPVSLDEKIERLNQENPLFDELRMRLGLSLV	not soluble
MSLTIEDNHGTEGISLPIEGVAATDNRAFELLDRWGVELVAAPLQLVPFTVTGYTEEGGVANLGSHREPDLEALAAAQPSLIINGQRFAQYYDDIIALNPDATVVELDPRDGEPLDQELIRQAETLGEIFGEEEDAAKIVADFESALERAKTAYAAISDQTVMAVNVSGGNIGYIAPSVGRTYGPIFDLVGLTPALEVGNASSDHEGDDINVEAIAAANPDLILVMDRDGGTSTRNEADYVPAEQIVSDNEALANVKAVTDGYVYYAPADTYTNENIITYTEILNGMADMFEKAAQEGHHHHHH	soluble
MNGIKTGLGITPGEHIISADSALSRNIRQCFCLSCHGRLILQTDAQGAWFEHDLHALSEQQKADCVVLNPEKSHPYIEDMAMFLSPLPVVLEWHCVMCEQFFHGKKFCEACGTGIYCRAVCTKSVYSYQPDLFEDCGGAST	not soluble
MGSDKIHHHHHHMTIHKLKEKVASTDFEQHSYAFRRFVLDELRVYIPFAAACFTTIDPESLLSTGTVMDKQLEPIHTLILENEHTGSDYNHYFQLVDSSPHIATLHDATGGNLTASQRYTRILAPAGFHDELRAALIDQGKCWGHLTLFHSKHHSPFSREEQQLVNSLLPAITKKVKRLTFQSTFSPSPNSSHFEAAIMIFSDTFELLSANEAAHSLLSLLREQEQLGEGTFPRPIETLCVKIKATSSSKEEGEIDRWSVCIPAANGQLLTLYASKLTSELLPEQYAVISQNTSPFERLGYSLLYYGLTQREIQIVEQIVNGYTTKQISSHLYISTHTVQDHLKSIFAKMNVNSRRELLSFLNQANK	not soluble
ARGSHMEEMIRSLQQRPEPTPEEWDLIHIATEAHRSTNAQGSHWKQRRKFLPDDIGQSPIVSMPDGDKVDLEAFSEFTKIITPAITRVVDFAKKLPMFSELPCEDQIILLKGCCMEIMSLRAAVRYDPESDTLTLSGEMAVKREQLKNGGLGVVSDAIFELGKSLSAFNLDDTEVALLQAVLLMSTDRSGLLCVDKIEKSQEAYLLAFEHYVNHRKHNIPHFWPKLLMKVTDLRMIGACHASRFLHCKVECPTELFPPLFLEVFEDQEV	soluble
ELSENFKKLMKYPYRPCTCTRCIEEQRVSAWFDERFNRSMQPLLTAKNAHLEEDTYKWWLRLQREKQPNNLNDTIRELFQVVPGNVDPLLEKRLVSCRRCAVVGNSGNLKESYYGPQIDSHDFVLRMNKAPTEGFEADVGSKTTHHFVYPESFRELAQEVSMILVPFKTTDLEWVISATTTGRISHTYVPVPAKIKVKKEKILIYHPAFIKYVFDRWLQGHGRYPSTGILSVIFSLHICDEVDLYGFGADSKGNWHHYWENNPSAGAFRKTGVHDGDFESNVTTILASINKIRIFKGR	soluble
SLTAAENIQEQLYPAPIKTVEEGSPAARAGVRPGDVLLRVNGQPVTDVLAYRHQLERGVVTLEVARPHEAPRVMTGVAGTAQDHHRLMLPQPPSLDETLTFTVEWEDPGLDFEEVLFDGIKKCANKCDFCYVHQMPRGFRKSLYIMDDDYRLSFLYGSFVTLTNLTEGDINRILDENLSPLYVSVHTANQDLRQDMMKWWKLKVKDPQAVQIREMIERLESIDLYTQIVLVPERNDRENLDETVEYLSSRPNVISAAVVPIGLTAHRTNLPDVRTFTPEEAQDTLRRLNVWRRKFLAERGTRFIFPSDELYLLAGEPLPTEEEYEGFPMLENGVGMIRDFLTEALPPLPAALPEPRKVILGTGLLFADSLARAIEPLRQIEGLDIEVRAIENKTFGKVTTVAGLLTGRCFRHAVQPGEADLLIVPPTTLRYGTELMIDDTSLGELRRELKMDVRAGGATLGELARVVLEGAQSSGHQFGMSAHAVKDSGRDDVAPSASRAQGGAAPEESLEEDVAESGMHGRGQA	soluble
